Measured values taken from patent publication US10485854B2, “Method of reducing biofilms” (Lysando AG, priority 2010, dated 2019).

Experiments:
[1] = tested on: P. aeruginosa PAO1p cells; assay: Antibacterial activity, 1 hour incubation with 100 μg/ml protein, residual colony count; conditions: for Reduction [%] / antibacterial activity as the relative inactivation (%): undialyzed protein 100 μg/ml; for Reduction [%]: room temperature (Table 7); for antibacterial effect in words (reduction of cell numbers compared to the negative control): 100 μg/ml protein, room temperature; for antibacterial activity as the relative inactivation (%): exponentially growing cells, room temperature (Table 6)
P. aeruginosa PAO1p = type: cell-based, Pseudomonas aeruginosa; conditions: 1.315 μM endolysin + 0.5 mM EDTA
[2] = tested on: biofilm of the Staphylococcus aureus strain KS13; assay: Biofilm reduction, crystal violet assay; conditions: 18 μg/well, 12 h; compared to the enzyme Lysostaphin

Molecule | Reduction [%] [1] [%] | antibacterial effect in words (reduction of cell numbers compared to the negative control) [1] | antibacterial activity as the relative inactivation (%) [1] [%] | also measured
pK2KZ144_pET32b_mod3: fusion protein SEQ ID NO: 49: endolysin SEQ ID NO: 1 with 38-residue linker-containing peptide SEQ ID NO: 28 (protein, pK2KZ144_pET32b_mod3) AMGSKRKKRKKRKRGSGSGKRKKRKKRKRGSGSGKRKKRKKRKKVLRKGDRGDEVCQLQTLLNLCGYDVGKPDGIFGNNTFNQVVKFQKDNCLDSDGIVGKNTWAELFSKYSPPIPYKTIPMPTANKSRAAATPVMNAVENATGVRSQLLLTFASIESAFDYEIKAKTSSATGWFQFLTGTWKTMIENYGMKYGVLTDPTGALRKDPRISALMGAELIKENMNILRPVLKREPTDTDLYLAHFFGPGAARRFLTTGQNELAATHFPKEAQANPSIFYNKDGSPKTIQEVYNLMDGKVAAHRK | 99.9 |  |  | 
POLY-gp144: fusion protein SEQ ID NO: 35: endolysin phiKZgp144 (SEQ ID NO: 1) with N-terminal peptide KRKKRKKRK (SEQ ID NO: 11) (protein, POLY-gp144) MGSKRKKRKKRKKVLRKGDRGDEVCQLQTLLNLCGYDVGKPDGIFGNNTFNQVVKFQKDNCLDSDGIVGKNTWAELFSKYSPPIPYKTIPMPTANKSRAAATPVMNAVENATGVRSQLLLTFASIESAFDYEIKAKTSSATGWFQFLTGTWKTMIENYGMKYGVLTDPTGALRKDPRISALMGAELIKENMNILRPVLKREPTDTDLYLAHFFGPGAARRFLTTGQNELAATHFPKEAQANPSIFYNKDGSPKTIQEVYNLMDGKVAAHRK |  | significant reduction | 99.85±0.09 | 
K8_pET32b: fusion protein SEQ ID NO: 48: endolysin SEQ ID NO: 1 with peptide KKKKKKKK (SEQ ID NO: 13) (protein, K8_pET32b) AMGSKKKKKKKKKVLRKGDRGDEVCQLQTLLNLCGYDVGKPDGIFGNNTFNQVVKFQKDNCLDSDGIVGKNTWAELFSKYSPPIPYKTIPMPTANKSRAAATPVMNAVENATGVRSQLLLTFASIESAFDYEIKAKTSSATGWFQFLTGTWKTMIENYGMKYGVLTDPTGALRKDPRISALMGAELIKENMNILRPVLKREPTDTDLYLAHFFGPGAARRFLTTGQNELAATHFPKEAQANPSIFYNKDGSPKTIQEVYNLMDGKVAAHRK | 99 |  |  | 
ELgp188: unmodified modular endolysin of Pseudomonas aeruginosa phage EL, SEQ ID NO: 2 (protein, ELgp188) MNFRTKNGYRDLQALVKELGLYTGQIDGVWGKGTSSSTETLLRGYAEVVGKNTGGIGLPTTSDASGYNVITALQRNLAFLGLYSLTVDGIWGNGTLSGLDKAFEVYKERYRTPTYDIAWSGKVSPAFTAKVKDWCGVHVPNHRAPHWLMACMAFETGQTFSPSIKNAAGSEAYGLIQFMSPAANDLNVPLSVIRSMDQLTQLDLVFKYFEMWMKRGKRYTQLEDFYLTIFHPASVGKKADEVLFLQGSKAYLQNKGFDVDKDGKITLGEISSTLYTTYYKGLLPENRHVISY |  | do not reduce cell numbers significantly | 10 ± 13 | 
POLY-gp188: fusion protein SEQ ID NO: 39: endolysin ELgp188 (SEQ ID NO: 2) with peptide SEQ ID NO: 11 (protein, POLY-gp188) MGSKRKKRKKRKNFRTKNGYRDLQALVKELGLYTGQIDGVWGKGTSSSTETLLRGYAEVVGKNTGGIGLPTTSDASGYNVITALQRNLAFLGLYSLTVDGIWGNGTLSGLDKAFEVYKERYRTPTYDIAWSGKVSPAFTAKVKDWCGVHVPNHRAPHWLMACMAFETGQTFSPSIKNAAGSEAYGLIQFMSPAANDLNVPLSVIRSMDQLTQLDLVFKYFEMWMKRGKRYTQLEDFYLTIFHPASVGKKADEVLFLQGSKAYLQNKGFDVDKDGKITLGEISSTLYTTYYKGLLPENRHVISY |  | significant reduction | 98.0±0.2 | 
R9_pET32b: fusion protein SEQ ID NO: 47: endolysin SEQ ID NO: 1 with peptide RRRRRRRRR (SEQ ID NO: 12) (protein, R9_pET32b) AMGSRRRRRRRRRKVLRKGDRGDEVCQLQTLLNLCGYDVGKPDGIFGNNTFNQVVKFQKDNCLDSDGIVGKNTWAELFSKYSPPIPYKTIPMPTANKSRAAATPVMNAVENATGVRSQLLLTFASIESAFDYEIKAKTSSATGWFQFLTGTWKTMIENYGMKYGVLTDPTGALRKDPRISALMGAELIKENMNILRPVLKREPTDTDLYLAHFFGPGAARRFLTTGQNELAATHFPKEAQANPSIFYNKDGSPKTIQEVYNLMDGKVAAHRK | 99 |  |  | 
PKPSP3gp10: fusion protein SEQ ID NO: 53: endolysin PSP3gp10 (SEQ ID NO: 8) with peptide SEQ ID NO: 11 (protein, PKPSP3gp10) MGSKRKKRKKRKPVINTHQNIAAFLDMLAYSEGTANHPLTKNRGYDVIVTGFDGSPEIFTDYSDHPFAHGRPPKVFNRRGEKSTASGRYQQLYIFWPHYKKQLALPDFSPLSQDKLAIQLIRERGAIDDIRAGRIERAVSRCRNIWASLPGAGYGQREHSLEKLVTVWRTAGGVMA |  |  |  | interaction of EDTA with the endolysin (P. aeruginosa PAO1p): synergistically
(POLY)^2-gp144: fusion protein SEQ ID NO: 36: endolysin SEQ ID NO: 1 with peptide SEQ ID NO: 21 (protein, (POLY)2-gp144) MGSKRKKRKKRKRSKRKKRKKRKKVLRKGDRGDEVCQLQTLLNLCGYDVGKPDGIFGNNTFNQVVKFQKDNCLDSDGIVGKNTWAELFSKYSPPIPYKTIPMPTANKSRAAATPVMNAVENATGVRSQLLLTFASIESAFDYEIKAKTSSATGWFQFLTGTWKTMIENYGMKYGVLTDPTGALRKDPRISALMGAELIKENMNILRPVLKREPTDTDLYLAHFFGPGAARRFLTTGQNELAATHFPKEAQANPSIFYNKDGSPKTIQEVYNLMDGKVAAHRK |  | significant reduction | 99.98±0.02 | 
KRK_6_pET32b: fusion protein SEQ ID NO: 44: endolysin SEQ ID NO: 1 with peptide KRKKRK (SEQ ID NO: 10) (protein, KRK_6_pET32b) AMGSKRKKRKKVLRKGDRGDEVCQLQTLLNLCGYDVGKPDGIFGNNTFNQVVKFQKDNCLDSDGIVGKNTWAELFSKYSPPIPYKTIPMPTANKSRAAATPVMNAVENATGVRSQLLLTFASIESAFDYEIKAKTSSATGWFQFLTGTWKTMIENYGMKYGVLTDPTGALRKDPRISALMGAELIKENMNILRPVLKREPTDTDLYLAHFFGPGAARRFLTTGQNELAATHFPKEAQANPSIFYNKDGSPKTIQEVYNLMDGKVAAHRK | 99.9 |  |  | 
PSP3gp10: unmodified globular endolysin of Salmonella typhimurium phage PSP3, SEQ ID NO: 8 (protein, PSP3gp10) MPVINTHQNIAAFLDMLAYSEGTANHPLTKNRGYDVIVTGFDGSPEIFTDYSDHPFAHGRPPKVFNRRGEKSTASGRYQQLYIFWPHYKKQLALPDFSPLSQDKLAIQLIRERGAIDDIRAGRIERAVSRCRNIWASLPGAGYGQREHSLEKLVTVWRTAGGVMA |  |  |  | interaction of EDTA with the endolysin (P. aeruginosa PAO1p): synergistically
(POLY)^2-gp188: fusion protein SEQ ID NO: 40: endolysin SEQ ID NO: 2 with peptide SEQ ID NO: 21 (protein, (POLY)2-gp188) MGSKRKKRKKRKRSKRKKRKKRKNFRTKNGYRDLQALVKELGLYTGQIDGVWGKGTSSSTETLLRGYAEVVGKNTGGIGLPTTSDASGYNVITALQRNLAFLGLYSLTVDGIWGNGTLSGLDKAFEVYKERYRTPTYDIAWSGKVSPAFTAKVKDWCGVHVPNHRAPHWLMACMAFETGQTFSPSIKNAAGSEAYGLIQFMSPAANDLNVPLSVIRSMDQLTQLDLVFKYFEMWMKRGKRYTQLEDFYLTIFHPASVGKKADEVLFLQGSKAYLQNKGFDVDKDGKITLGEISSTLYTTYYKGLLPENRHVISY |  | significant reduction | 98.9 ± 0.4 | 
PK-Lysostaphin: fusion protein SEQ ID NO: 142: bacteriocin Lysostaphin (SEQ ID NO: 87) with peptide SEQ ID NO: 11 (protein, PK-Lysostaphin) AMGKRKKRKKRKGSAHEHSAQWLNNYKKGYGYGPYPLGINGGMHYGVDFFMNIGTPVKAISSGKIVEAGWSNYGGGNQIGLIENDGVHRQWYMHLSKYNVKVGDYVKAGQIIGWSGSTGYSTAPHLHFQRMVNSFSNSTAQDPMPFLKSAGYGKAGGTVTPTPNTGWKTNKYGTLYKSESASFTPNTDIITRTTGPFRSMPQSGVLKAGQTIHYDEVMKQDGHVWVGYTGNSGQRIYLPVRTWNKSTNTLGVLWGTIKLVPRGS |  |  |  | reduction of biofilm (crystal violet, absorption 590 nm) [2]: massive reduction
